From US20210388087A1 (Chugai, published 2021)

Molecular target: T1, CD3 epsilon homodimer protein (UniProt P07766 23-126)
T1 construct: immobilized on Sensor chip CM4 by amine coupling; also called CD3 (CD3 epsilon)
Assay: SPR (Biacore T200), CD3 epsilon homodimer on CM4 chip, one-arm antibody as analyte, 25 C;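 note: homodimer attached to the sensor surface via amine coupling, HBS-EP+ used as running buffer during binding runs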

T1 sequence (P07766 23-126): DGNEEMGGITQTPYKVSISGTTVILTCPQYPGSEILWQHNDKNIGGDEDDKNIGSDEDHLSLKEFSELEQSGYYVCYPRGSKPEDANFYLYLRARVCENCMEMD

ratio of amounts bound (altered form / CE115HA000)	Binder
1.05	CE115HA000 A52aS one-arm antibody (antibody, human IgG1, kappa, L234A L235A, N297A, name in Kabat numbering) heavy: QVQLVESGGGVVQPGRSLRLSCAASGFTFSNAWMHWVRQAPGKGLEWVAQIKSKSNNYATYYAESVKGRFTISRDDSKNSLYLQMNSLKTEDTAVYYCRYVHYGAYYGVDAWGQGTTVTVSSASTKGPSVFPLAPSSKSTSGGTAALGCLVKDYFPEPVTVSWNSGALTSGVHTFPAVLQSSGLYSLSSVVTVPSSSLGTQTYICNVNHKPSNTKVDKKVEPKSCDKTHTCPPCPAPEAAGGPSVFLFPPKPKDTLMISRTPEVTCVVVDVSHEDPEVKFNWYVDGVEVHNAKTKPREEQYASTYRVVSVLTVLHQDWLNGKEYKCKVSNKALPAPIEKTISKAKGQPREPQVYTLPPSRCELTKNQVSLSCAVKGFYPSDIAVEWESNGQPENNYKTTPPVLDSDGSFFLVSKLTVDKSRWQQGNVFSCSVMHEALHNHYTQKSLSLSPDYKDDDDK EPKSSDKTHTCPPCPAPELLGGPSVFLFPPKPKDTLMISRTPEVTCVVVDVSHEDPEVKFNWYVDGVEVHNAKTKPREEQYNSTYRVVSVLTVLHQDWLNGKEYKCKVSNKALPAPIEKTISKAKGQPREPQVCTLPPSRDELTKNQVSLWCLVKGFYPSDIAVEWESNGQPENNYKTTPPVLDSDGSFFLYSKLTVDKSRWQQGNVFSCSVMHEALHNRYTQKSLSLSP light: DIVMTQSPLSLPVTPGEPASISCRSSQSLVHSNRNTYLHWYQQKPGQAPRLLIYKVSNRFSGVPDRFSGSGSGTDFTLKISRVEAEDVGVYYCGQGTQVPYTFGQGTKLEIKRTVAAPSVFIFPPSDEQLKSGTASVVCLLNNFYPREAKVQWKVDNALQSGNSQESVTEQDSKDSTYSLSSTLTLSKADYEKHKVYACEVTHQGLSSPVTKSFNRGEC
0.51	CE115HA000 A56D one-arm antibody (antibody, human IgG1, kappa, L234A L235A, N297A, name in Kabat numbering) heavy: QVQLVESGGGVVQPGRSLRLSCAASGFTFSNAWMHWVRQAPGKGLEWVAQIKAKSNNYDTYYAESVKGRFTISRDDSKNSLYLQMNSLKTEDTAVYYCRYVHYGAYYGVDAWGQGTTVTVSSASTKGPSVFPLAPSSKSTSGGTAALGCLVKDYFPEPVTVSWNSGALTSGVHTFPAVLQSSGLYSLSSVVTVPSSSLGTQTYICNVNHKPSNTKVDKKVEPKSCDKTHTCPPCPAPEAAGGPSVFLFPPKPKDTLMISRTPEVTCVVVDVSHEDPEVKFNWYVDGVEVHNAKTKPREEQYASTYRVVSVLTVLHQDWLNGKEYKCKVSNKALPAPIEKTISKAKGQPREPQVYTLPPSRCELTKNQVSLSCAVKGFYPSDIAVEWESNGQPENNYKTTPPVLDSDGSFFLVSKLTVDKSRWQQGNVFSCSVMHEALHNHYTQKSLSLSPDYKDDDDK EPKSSDKTHTCPPCPAPELLGGPSVFLFPPKPKDTLMISRTPEVTCVVVDVSHEDPEVKFNWYVDGVEVHNAKTKPREEQYNSTYRVVSVLTVLHQDWLNGKEYKCKVSNKALPAPIEKTISKAKGQPREPQVCTLPPSRDELTKNQVSLWCLVKGFYPSDIAVEWESNGQPENNYKTTPPVLDSDGSFFLYSKLTVDKSRWQQGNVFSCSVMHEALHNRYTQKSLSLSP light: DIVMTQSPLSLPVTPGEPASISCRSSQSLVHSNRNTYLHWYQQKPGQAPRLLIYKVSNRFSGVPDRFSGSGSGTDFTLKISRVEAEDVGVYYCGQGTQVPYTFGQGTKLEIKRTVAAPSVFIFPPSDEQLKSGTASVVCLLNNFYPREAKVQWKVDNALQSGNSQESVTEQDSKDSTYSLSSTLTLSKADYEKHKVYACEVTHQGLSSPVTKSFNRGEC
0.31	CE115HA000 A52aY one-arm antibody (antibody, human IgG1, kappa, L234A L235A, N297A, name in Kabat numbering) heavy: QVQLVESGGGVVQPGRSLRLSCAASGFTFSNAWMHWVRQAPGKGLEWVAQIKYKSNNYATYYAESVKGRFTISRDDSKNSLYLQMNSLKTEDTAVYYCRYVHYGAYYGVDAWGQGTTVTVSSASTKGPSVFPLAPSSKSTSGGTAALGCLVKDYFPEPVTVSWNSGALTSGVHTFPAVLQSSGLYSLSSVVTVPSSSLGTQTYICNVNHKPSNTKVDKKVEPKSCDKTHTCPPCPAPEAAGGPSVFLFPPKPKDTLMISRTPEVTCVVVDVSHEDPEVKFNWYVDGVEVHNAKTKPREEQYASTYRVVSVLTVLHQDWLNGKEYKCKVSNKALPAPIEKTISKAKGQPREPQVYTLPPSRCELTKNQVSLSCAVKGFYPSDIAVEWESNGQPENNYKTTPPVLDSDGSFFLVSKLTVDKSRWQQGNVFSCSVMHEALHNHYTQKSLSLSPDYKDDDDK EPKSSDKTHTCPPCPAPELLGGPSVFLFPPKPKDTLMISRTPEVTCVVVDVSHEDPEVKFNWYVDGVEVHNAKTKPREEQYNSTYRVVSVLTVLHQDWLNGKEYKCKVSNKALPAPIEKTISKAKGQPREPQVCTLPPSRDELTKNQVSLWCLVKGFYPSDIAVEWESNGQPENNYKTTPPVLDSDGSFFLYSKLTVDKSRWQQGNVFSCSVMHEALHNRYTQKSLSLSP light: DIVMTQSPLSLPVTPGEPASISCRSSQSLVHSNRNTYLHWYQQKPGQAPRLLIYKVSNRFSGVPDRFSGSGSGTDFTLKISRVEAEDVGVYYCGQGTQVPYTFGQGTKLEIKRTVAAPSVFIFPPSDEQLKSGTASVVCLLNNFYPREAKVQWKVDNALQSGNSQESVTEQDSKDSTYSLSSTLTLSKADYEKHKVYACEVTHQGLSSPVTKSFNRGEC
0.61	CE115HA000 A56G one-arm antibody (antibody, human IgG1, kappa, L234A L235A, N297A, name in Kabat numbering) heavy: QVQLVESGGGVVQPGRSLRLSCAASGFTFSNAWMHWVRQAPGKGLEWVAQIKAKSNNYGTYYAESVKGRFTISRDDSKNSLYLQMNSLKTEDTAVYYCRYVHYGAYYGVDAWGQGTTVTVSSASTKGPSVFPLAPSSKSTSGGTAALGCLVKDYFPEPVTVSWNSGALTSGVHTFPAVLQSSGLYSLSSVVTVPSSSLGTQTYICNVNHKPSNTKVDKKVEPKSCDKTHTCPPCPAPEAAGGPSVFLFPPKPKDTLMISRTPEVTCVVVDVSHEDPEVKFNWYVDGVEVHNAKTKPREEQYASTYRVVSVLTVLHQDWLNGKEYKCKVSNKALPAPIEKTISKAKGQPREPQVYTLPPSRCELTKNQVSLSCAVKGFYPSDIAVEWESNGQPENNYKTTPPVLDSDGSFFLVSKLTVDKSRWQQGNVFSCSVMHEALHNHYTQKSLSLSPDYKDDDDK EPKSSDKTHTCPPCPAPELLGGPSVFLFPPKPKDTLMISRTPEVTCVVVDVSHEDPEVKFNWYVDGVEVHNAKTKPREEQYNSTYRVVSVLTVLHQDWLNGKEYKCKVSNKALPAPIEKTISKAKGQPREPQVCTLPPSRDELTKNQVSLWCLVKGFYPSDIAVEWESNGQPENNYKTTPPVLDSDGSFFLYSKLTVDKSRWQQGNVFSCSVMHEALHNRYTQKSLSLSP light: DIVMTQSPLSLPVTPGEPASISCRSSQSLVHSNRNTYLHWYQQKPGQAPRLLIYKVSNRFSGVPDRFSGSGSGTDFTLKISRVEAEDVGVYYCGQGTQVPYTFGQGTKLEIKRTVAAPSVFIFPPSDEQLKSGTASVVCLLNNFYPREAKVQWKVDNALQSGNSQESVTEQDSKDSTYSLSSTLTLSKADYEKHKVYACEVTHQGLSSPVTKSFNRGEC
1.35	CE115HA000 A56K one-arm antibody (antibody, human IgG1, kappa, L234A L235A, N297A, name in Kabat numbering) heavy: QVQLVESGGGVVQPGRSLRLSCAASGFTFSNAWMHWVRQAPGKGLEWVAQIKAKSNNYKTYYAESVKGRFTISRDDSKNSLYLQMNSLKTEDTAVYYCRYVHYGAYYGVDAWGQGTTVTVSSASTKGPSVFPLAPSSKSTSGGTAALGCLVKDYFPEPVTVSWNSGALTSGVHTFPAVLQSSGLYSLSSVVTVPSSSLGTQTYICNVNHKPSNTKVDKKVEPKSCDKTHTCPPCPAPEAAGGPSVFLFPPKPKDTLMISRTPEVTCVVVDVSHEDPEVKFNWYVDGVEVHNAKTKPREEQYASTYRVVSVLTVLHQDWLNGKEYKCKVSNKALPAPIEKTISKAKGQPREPQVYTLPPSRCELTKNQVSLSCAVKGFYPSDIAVEWESNGQPENNYKTTPPVLDSDGSFFLVSKLTVDKSRWQQGNVFSCSVMHEALHNHYTQKSLSLSPDYKDDDDK EPKSSDKTHTCPPCPAPELLGGPSVFLFPPKPKDTLMISRTPEVTCVVVDVSHEDPEVKFNWYVDGVEVHNAKTKPREEQYNSTYRVVSVLTVLHQDWLNGKEYKCKVSNKALPAPIEKTISKAKGQPREPQVCTLPPSRDELTKNQVSLWCLVKGFYPSDIAVEWESNGQPENNYKTTPPVLDSDGSFFLYSKLTVDKSRWQQGNVFSCSVMHEALHNRYTQKSLSLSP light: DIVMTQSPLSLPVTPGEPASISCRSSQSLVHSNRNTYLHWYQQKPGQAPRLLIYKVSNRFSGVPDRFSGSGSGTDFTLKISRVEAEDVGVYYCGQGTQVPYTFGQGTKLEIKRTVAAPSVFIFPPSDEQLKSGTASVVCLLNNFYPREAKVQWKVDNALQSGNSQESVTEQDSKDSTYSLSSTLTLSKADYEKHKVYACEVTHQGLSSPVTKSFNRGEC
0.52	CE115HA000 A52aV one-arm antibody (antibody, human IgG1, kappa, L234A L235A, N297A, name in Kabat numbering) heavy: QVQLVESGGGVVQPGRSLRLSCAASGFTFSNAWMHWVRQAPGKGLEWVAQIKVKSNNYATYYAESVKGRFTISRDDSKNSLYLQMNSLKTEDTAVYYCRYVHYGAYYGVDAWGQGTTVTVSSASTKGPSVFPLAPSSKSTSGGTAALGCLVKDYFPEPVTVSWNSGALTSGVHTFPAVLQSSGLYSLSSVVTVPSSSLGTQTYICNVNHKPSNTKVDKKVEPKSCDKTHTCPPCPAPEAAGGPSVFLFPPKPKDTLMISRTPEVTCVVVDVSHEDPEVKFNWYVDGVEVHNAKTKPREEQYASTYRVVSVLTVLHQDWLNGKEYKCKVSNKALPAPIEKTISKAKGQPREPQVYTLPPSRCELTKNQVSLSCAVKGFYPSDIAVEWESNGQPENNYKTTPPVLDSDGSFFLVSKLTVDKSRWQQGNVFSCSVMHEALHNHYTQKSLSLSPDYKDDDDK EPKSSDKTHTCPPCPAPELLGGPSVFLFPPKPKDTLMISRTPEVTCVVVDVSHEDPEVKFNWYVDGVEVHNAKTKPREEQYNSTYRVVSVLTVLHQDWLNGKEYKCKVSNKALPAPIEKTISKAKGQPREPQVCTLPPSRDELTKNQVSLWCLVKGFYPSDIAVEWESNGQPENNYKTTPPVLDSDGSFFLYSKLTVDKSRWQQGNVFSCSVMHEALHNRYTQKSLSLSP light: DIVMTQSPLSLPVTPGEPASISCRSSQSLVHSNRNTYLHWYQQKPGQAPRLLIYKVSNRFSGVPDRFSGSGSGTDFTLKISRVEAEDVGVYYCGQGTQVPYTFGQGTKLEIKRTVAAPSVFIFPPSDEQLKSGTASVVCLLNNFYPREAKVQWKVDNALQSGNSQESVTEQDSKDSTYSLSSTLTLSKADYEKHKVYACEVTHQGLSSPVTKSFNRGEC
